Values quoted from earlier work in paper PMC7508936.

Target: galectin-1 (Homo sapiens) (UniProt P09382)
Sequence of UniProt P09382 (P09382 2-135): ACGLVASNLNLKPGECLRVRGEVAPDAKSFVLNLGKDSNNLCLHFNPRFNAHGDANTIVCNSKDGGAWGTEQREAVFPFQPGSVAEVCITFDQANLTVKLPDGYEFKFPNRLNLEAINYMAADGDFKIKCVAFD

PSG1 (from UniProt P11464)
Kd: 130 nM
